Experiment: soluble on expression in E. coli; label from the status in PepcDB or PDB records

Sequence | soluble on expression in E. coli
MSLKSTDIKIVEAKFSTEEVPFRTPLKFGGRVMDSSVLLNVEVIVETRNGKQGIGIGSMPAGNIWAWPSAVVSPEDSLKAMIEFLKEAVEIANICPEVAHPIDLMYHISAEYHFMAKKLSKRLGLAEEIPELAQLVASSPLDAAIHDGFGRANHINSYNGLSAEYMSHDLTEYLDDQFKGEYLDQYTLRDPKPTLPLYHLVGALDPITEADISERVDDGLPETLGEWIKADGLTHLKIKLSGDNMDWDISRVIAVENEAVKAQGERGQDKWVYSLDFNEKCENVDYVLDFLNKIREQTPAAFDRVQYIEQPTNRDLKANPENKMHEAAKIKPVVIDESLVDYESLLLSRELGYSGVALKACKGQTESLFLGAAAQKFDMFLCVQDLTCCGYSFLHSASLAARIPSIAAIEGNGRQYCPGPNKKWKRSYPGMFNITDGTVKTSEGHHHHHH | not soluble
MALVNSILKANEYSFKVPEFDGKNVSSILGFDSNQLPANAPIEDRRSAATCLQTRGMLLGVFDGHAGCACSQAVSERLFYYIAVSLLPHETLLEIENAVESGRALLPILQWHKHPNDYFSKEASKLYFNSLRTYWQELIDLNTGESTDIDVKEALINAFKRLDNDISLEAQVGDPNSFLNYLVLRVAFSGATACVAHVDGVDLHVANTGDSRAMLGVQEEDGSWSAVTLSNDHNAQNERELERLKLEHPKSEAKSVVKQDRLLGLLMPFRAFGDVKFKWSIDLQKRVIESGPDQLNDNEYTKFIPPNYHTPPYLTAEPEVTYHRLRPQDKFLVLATDGLWETMHRQDVVRIVGEYLTGMHHQQPIAVGGYKVTLGQMHGLLTERRTKMSSVFEDQNAATHLIRHAVGNNEFGTVDHERLSKMLSLPEELARMYRDDITIIVVQFNSEGHHHHHH | soluble
MPAAPLCSPFPSPPPSFHTASLPFSIHAHHSPLPCDLDPPLYLAETVSLLEEWGPPSSCPMQCKLTSHPARLTHLPPCLWGFAVALKPSWAGLAPSLLPPPRMSLCRPLSFLRHQCPWLPWQAHQGLVPWSPSMVAAACIVSPSGHCRCQPFIPHVFLGHGGLTSVSGECG | soluble
MGSDKIHHHHHHMGRLKTVKLVLLHTSFNLFYQFFYKVFGPKKGRITLATMRSGQLNDNLAALEQGLKTANVKPVTVFCYHYDRTLAGKVGFLLASIKALYVIARADVFVIDDYFFPLYAIHKHDDNQVVQLWHAIGSLKKFGLSLPNADQSVMKPHTNYDWVLINAKSDQPAYLDAMAINQDHVIATGSPMVDSLLNRQPQQPRLAARRILYSPTYRQGVQGKQQVMGYVNNMIAACQQLTGPWELYISLHPYLKLSAMTLPSNVHIFQDAERVKTLMPTIDLFITDYSSLSLTFSYFERPIILYTPDYDDYMQTSGFYVDYYQYLQAPHFSKAARVVDFINQEVDHMDLSYVHELKQKTFPHQDGHNTERVVQFVEKLAGGEH | not soluble
MGSDKIHHHHHHATEADVEAAFNPYKNGFPSFPGLAAGTVVNKGNVEQFKDALDPGLYQIVKNGWDEIKVGPTTQFAMDKFYVEATKKNLNTAKLGAQNGEITGFVAGRPFPEEPKADDPRAGEKLAWNFKYGLNWGDNAAIYPFYWKYRNMTSGQVERTLKFNFHFLNFKHRVQHAPVPEVTPNPSELFRGIYVKVLEPQDLKNTQLLIQRYEDDLKFDDAYLYLGFQRRVRRLATGQTTDAFLGADLMIEDFEGYNGRISDMKWTFKGTKNILMPYYNHNELQLTDEFKDPSGYKFVDFGGQGGCFPKITWQLRKVYVLEAAPVLASHPVSKRVFHVDAQVFNINRTLIYDRKGELWKTFTIGKSHPDHHLPVNKGTGIAIDDSFSMIDVQAKHCTTGQFKGQVDPKLNPPSLFQVQNMRGGD | not soluble
MSLRLADFGFTDGINEIIAITENEDGSWNAAPIGIIVEDSSSDTAKAKLYRNRTRANLERSGVLFANVTDDALVFAVSSFGNLNDDWYASPNPPIIKGAMAWCRFEAEMRSGVAHLKLTDGEIIEKRVRAINRGLSAVIEALVHATRYVAIKSDERRKELLERIHYYREIVQKCGSEREKRAFEIIMEKIGEGHHHHHH | soluble
MGSDKIHHHHHHMNNINEKSTYHHGDLRETLLVVATEMLQENGIKEVSLRKLASRVGVSRTAPYHHFKDKNALLCGMAEKGFEQLHQINKCGYEDGELSIREHFYRFIHDYIQFAHNNPDLYELMFGRTIWKDKSSTQELRDSAYPCFQFQVAMTQEWQKKGLFNVDDNALRVSQVLWGTVHGIAKLFIDGIYTDNSKIDEICDYAVSMFLSNSKK | not soluble
MLSKRLLNFESFEVMDILALAQKLESEGKKVIHLEIGEPDFNTPKPIVDEGIKSLKEGKTHYTDSRGILELREKISELYKDKYKADIIPDNIIITGGSSLGLFFALSSIIDDGDEVLIQNPCYPCYKNFIRFLGAKPVFCDFTVESLEEALSDKTKAIIINSPSNPLGEVIDREIYEFAYENIPYIISDEIYNGLVYEGKCYSAIEFDENLEKTILINGFSKLYAMTGWRIGYVISNDEIIEAILKLQQNLFISAPTISQYAALKAFEKETEREINSMIKEFDRRRRLVLKYVKDFGWEVNNPIGAYYVFPNIGEDGREFAYKLLKEKFVALTPGIGFGSKGKNYIRISYANSYENIKEGLERIKEFLNK | soluble
MSTFKITIIGGGSSYTPELVDGLIQRIEQLPVTELALVDVEQGRQKVEIIAALTQRMLARHGLEQVKVSVHYSLDEAIRGARFVLTQFRVGQLPARAADERLGLKYNLLGQETTGIGGFAKALRTIPVMLDIAANVERLAPDAWIINFTNPAGIVTEAVSRYTKAKIIGLCNVPISMHHMIAKLLQAPYEDLQLRFAGLNHMVWVHEVLQRGKYVTADVLKMLCDGASLSMNNIKEAPWPPEFLQAMGAIPCPYHRYFYQTQDMLAEEMAAAAERGTRAEQVMQVEKELFALYADPHLDTKPEQLSFRGGSFYSEVALELIRAIHNNLGTQLVVNTTNRGAIRGLSDDSVVETNCIIDAKGAHPLTFGPLPVSMHGLTQQVKAYERLTIDAAVHGDRRSALLALVTNPLIANASIAQPLLEEVLQVNKPYLPQFSGL | not soluble
RGEPYAGQVAVGATVINRTKNPKFPSTIAGVIYQPGAFTAIVDGQIHATMEPNSIRAARDALNGWDPSGGAIYYFNPATATSGWIWSRPLIIIIGKHRFCR | not soluble
MSANDFKPETWTSSANEALRVSIVGENAVQFSPLFTYPIYGDSEKIYGYKDLIIHLAFDSVTFKPYVNVKYSAKLGDDNIVDVEKKLLSFLPKDDVIVRDEAKWVDCFAEERKTHNLSDVFEKVSEYSLNGEEFVVYKSSLVDDFARRMHRRVQIFSLLFIEAANYIDETDPSWQIYWLLNKKTKELIGFVTTYKYWHYLGAKSFDEDIDKKFRAKISQFLIFPPYQNKGHGSCLYEAIIQSWLEDKSITEITVEDPNEAFDDLRDRNDIQRLRKLGYDAVFQKHSDLSDEFLESSRKSLKLEERQFNRLVEMLLLLNNS | soluble
MAHHHHHHMPPSTYAATAANAEAQGDDVDMHVMTYDQRCHGRSTFVGGEDHLSIEVLVRDFLDVLQYAKTELYSNSNVYVLGHSLGGAVVARALSGNKSALERVSGVLLVDVVEGTAQLSLQHMKSFLKNRPNTFPEVKDAEVWFLRMGGMQNPQGAAVSVPPLLQKNDETGLWQWRTDIRKMESVWDGWFAGLDEAFISLPCAKMLCTANAERLDKTLTVAQMQGKFQLEVIGNGCGHYVMDDATPTVVAKVRRFVKRNEELAQKLQLMNKNLSGQKINTTVPPTRT | not soluble
MGSDKIHHHHHHMINRYLGDPPFESPERRNRLPERHKVKAGFSPTIDCAVLIAAAEKGFAADEGIELELFREQSARAVLAALGGDDIHIGHLPAPVPVGSAVGLDDLPADIVGVFTLSLGGSATAVSHGFYDELYREGMKLPDPAAFGRAMARVCAARRAAGKNPPVFAVEDIVSTPFYTLRYLLGSCGVLLGRDMEIIEALPKAMPALLESGKVDALCTAEPAGSAVVLGGAGRIVTTGALIWHNAPEKILAVKKGWAEENATLLEGLLRALYRAGEWCANDANIEELAGILAAPQYIDENGEFLLPALTGYISTSQRDMQRFQEFFVTSAKAANFPWQSQALWFFSQMLRWGEVPAERRLEPTMAEAARNAYRPDIFRKAMKPLFVPVPGANLKLEGTLKEPVHVGASRTGLVLGPDCFFDGRVFDPETLEMDDEI | not soluble
MSLTSEIVNSAWKVIPMFESRSIPLTVDFYTKTLGFELGSVKPEDNESELYFCSLAIGKKADANFYFSKVTPETFKSSHAMIGLGTRQLDDYYVYLKGKIEVEFSEDIEDKPWGFRQFTIKDTDGNSLTFFKFLEGGNPGDEGHHHHHH | soluble

From the DeepSol protein solubility set
